Substrate in data set [1]: CCCCCCCCCC(=O)CC(=O)N[C@H]1CCOC1=O
Nature of the data set: purified protein. The settings on record: pH 8.3.

Substrate in data set [2]: CCCC(=O)N[C@H]1CCOC1=O
Nature of the data set: purified protein. The settings on record: pH 8.3.

For one protein, Km and kcat/Km results are on record in publication PMC7193897.

What is called Km is the substrate concentration at which the rate is half of its maximum. What is called kcat/Km is the turnover number divided by the Michaelis constant.

B1: GcL (Parageobacillus caldoxylosilyticus NBRC 107762) (protein)
chain: MANVIKARPKLYVMDNGRMRMDKNWMIAMHNPATIHNPNAQTEFVEFPIYTVLIDHPEGKILFDTSCNPNSMGPQGRWAESTQQMFPWTATEECYLHNRLEQLKVRPEDIRYVVASHLHLDHAGCLEMFTNATIIVHEDEFNGALQCYARNQKEGAYIWADIDAWIKNNLQWRTVKRHEDNILLAEGVKVLNFGSGHAWGMLGLHVELPETGGIILASDAIYTAESYGPPIKPPGIIYDSLGYMNTVERIRRIAQETKSQVWFGHDAEQFKKFRKSTEGYYE
For B1, the Michaelis-Menten constant (Km) in the data set “purified protein [1]” was determined as 97 ± 9 µM. Besides, in the data set “purified protein [2]”, the Km entry is on record as “(9.8 ± 0.7) × 10^2 μM” and the kcat/Km is 43000 M⁻¹ s⁻¹.
